{
  "source": "paper PMC7367873",
  "about": "“Dissecting the sequence determinants for dephosphorylation by the catalytic subunits of phosphatases PP1 and PP2A” (Nature Communications, 2020)",
  "molecules": {"B1": {"name": "RALGPS2 (protein, UniProt Q86X27 1-583, looked up)", "Ras-specific guanine …": "MDLMNGQASSVNIAATASEKSSSSESLSDKGSELKKSFDAVVFDVLKVTPEEYAGQITLMDVPVFKAIQPDELSSCGWNKKEKYSSAPNAVAFTRRFNHVSFWVVREILHAQTLKIRAEVLSHYIKTAKKLYELNNLHALMAVVSGLQSAPIFRLTKTWALLSRKDKTTFEKLEYVMSKEDNYKRLRDYISSLKMTPCIPYLGIYLSDLTYIDSAYPSTGSILENEQRSNLMNNILRIISDLQQSCEYDIPMLPHVQKYLNSVQYIEELQKFVEDDNYKLSLKIEPGTSTPRSAASREDLVGPEVGASPQSGRKSVAAEGALLPQTPPSPRNLIPHGHRKCHSLGYNFIHKMNTAEFKSATFPNAGPRHLLDDSVMEPHAPSRGQAESSTLSSGISIGSSDGSELSEETSWPAFERNRLYHSLGPVTRVARNGYRSHMKASSSAESEDLAVHLYPGAVTIQGVLRRKTLLKEGKKPTVASWTKYWAALCGTQLFYYAAKSLKATERKHFKSTSNKNVSVIGWMVMMADDPEHPDLFLLTDSEKGNSYKFQAGNRMNAMLWFKHLSAACQSNKQQVPTNLMTFE"}, "B2": {"name": "SERPINH1 (protein, UniProt P50454 19-418, looked up)", "Serpin H1": "AEVKKPAAAAAPGTAEKLSPKAATLAERSAGLAFSLYQAMAKDQAVENILVSPVVVASSLGLVSLGGKATTASQAKAVLSAEQLRDEEVHAGLGELLRSLSNSTARNVTWKLGSRLYGPSSVSFADDFVRSSKQHYNCEHSKINFRDKRSALQSINEWAAQTTDGKLPEVTKDVERTDGALLVNAMFFKPHWDEKFHHKMVDNRGFMVTRSYTVGVMMMHRTGLYNYYDDEKEKLQIVEMPLAHKLSSLIILMPHHVEPLERLEKLLTKEQLKIWMGKMQKKAVAISLPKGVVEVTHDLQKHLAGLGLTEAIDKNKADLSRMSGKKDLYLASVFHATAFELDTDGNPFDQDIYGREELRSPKLFYADHPFIFLVRDTQSGSLLFIGRLVRPKGDKMRDEL"}, "B3": {"name": "HNRNPA2B1 (protein, UniProt P22626 1-353, looked up)", "Heterogeneous nuclear …": "MEKTLETVPLERKKREKEQFRKLFIGGLSFETTEESLRNYYEQWGKLTDCVVMRDPASKRSRGFGFVTFSSMAEVDAAMAARPHSIDGRVVEPKRAVAREESGKPGAHVTVKKLFVGGIKEDTEEHHLRDYFEEYGKIDTIEIITDRQSGKKRGFGFVTFDDHDPVDKIVLQKYHTINGHNAEVRKALSRQEMQEVQSSRSGRGGNFGFGDSRGGGGNFGPGPGSNFRGGSDGYGSGRGFGDGYNGYGGGPGGGNFGGSPGYGGGRGGYGGGGPGYGNQGGGYGGGYDNYGGGNYGSGNYNDFGNYNQQPSNYGPMKSGNFGGSRNMGGPYGGGNYGPGGSGGSGGYGGRSRY"}, "B4": {"name": "GTF3C3 (protein, UniProt Q9Y5Q9 2-886, looked up)", "General transcription factor …": "SGFSPELIDYLEGKISFEEFERRREERKTREKKSLQEKGKLSAEENPDDSEVPSSSGINSTKSQDKDVNEGETSDGVRKSVHKVFASMLGENEDDEEEEEEEEEEEEEEETPEQPTAGDVFVLEMVLNRETKKMMKEKRPRSKLPRALRGLMGEANIRFARGEREEAILMCMEIIRQAPLAYEPFSTLAMIYEDQGDMEKSLQFELIAAHLNPSDTEEWVRLAEMSLEQDNIKQAIFCYTKALKYEPTNVRYLWERSSLYEQMGDHKMAMDGYRRILNLLSPSDGERFMQLARDMAKSYYEANDVTSAINIIDEAFSKHQGLVSMEDVNIAAELYISNKQYDKALEIITDFSGIVLEKKTSEEGTSEENKAPENVTCTIPDGVPIDITVKLMVCLVHLNILEPLNPLLTTLVEQNPEDMGDLYLDVAEAFLDVGEYNSALPLLSALVCSERYNLAVVWLRHAECLKALGYMERAAESYGKVVDLAPLHLDARISLSTLQQQLGQPEKALEALEPMYDPDTLAQDANAAQQELKLLLHRSTLLFSQGKMYGYVDTLLTMLAMLLKVAMNRAQVCLISSSKSGERHLYLIKVSRDKISDSNDQESANCDAKAIFAVLTSVLTKDDWWNLLLKAIYSLCDLSRFQEAELLVDSSLEYYSFYDDRQKRKELEYFGLSAAILDKNFRKAYNYIRIMVMENVNKPQLWNIFNQVTMHSQDVRHHRFCLRLMLKNPENHALCVLNGHNAFVSGSFKHALGQYVQAFRTHPDEPLYSFCIGLTFIHMASQKYVLRRHALIVQGFSFLNRYLSLRGPCQESFYNLGRGLHQLGLIHLAIHYYQKALELPPLVVEGIELDQLDLRRDIAYNLSLIYQSSGNTGMAQTLLYTYCSI"}, "B5": {"name": "HNRNPL (protein, UniProt P14866 1-589, looked up)", "Heterogeneous nuclear …": "MSRRLLPRAEKRRRRLEQRQQPDEQRRRSGAMVKMAAAGGGGGGGRYYGGGSEGGRAPKRLKTDNAGDQHGGGGGGGGGAGAAGGGGGGENYDDPHKTPASPVVHIRGLIDGVVEADLVEALQEFGPISYVVVMPKKRQALVEFEDVLGACNAVNYAADNQIYIAGHPAFVNYSTSQKISRPGDSDDSRSVNSVLLFTILNPIYSITTDVLYTICNPCGPVQRIVIFRKNGVQAMVEFDSVQSAQRAKASLNGADIYSGCCTLKIEYAKPTRLNVFKNDQDTWDYTNPNLSGQGDPGSNPNKRQRQPPLLGDHPAEYGGPHGGYHSHYHDEGYGPPPPHYEGRRMGPPVGGHRRGPSRYGPQYGHPPPPPPPPEYGPHADSPVLMVYGLDQSKMNCDRVFNVFCLYGNVEKVKFMKSKPGAAMVEMADGYAVDRAITHLNNNFMFGQKLNVCVSKQPAIMPGQSYGLEDGSCSYKDFSESRNNRFSTPEQAAKNRIQHPSNVLHFFNAPLEVTEENFFEICDELGVKRPSSVKVFSGKSERSSSGLLEWESKSDALETLGFLNHYQMKNPNGPYPYTLKLCFSTAQHAS"}, "B6": {"name": "KANK1 (protein, UniProt Q14678 1-1352, looked up)", "KN motif and ankyrin repeat …": "MAHTTKVNGSASGKAGDILSGDQDKEQKDPYFVETPYGYQLDLDFLKYVDDIQKGNTIKRLNIQKRRKPSVPCPEPRTTSGQQGIWTSTESLSSSNSDDNKQCPNFLIARSQVTSTPISKPPPPLETSLPFLTIPENRQLPPPSPQLPKHNLHVTKTLMETRRRLEQERATMQMTPGEFRRPRLASFGGMGTTSSLPSFVGSGNHNPAKHQLQNGYQGNGDYGSYAPAAPTTSSMGSSIRHSPLSSGISTPVTNVSPMHLQHIREQMAIALKRLKELEEQVRTIPVLQVKISVLQEEKRQLVSQLKNQRAASQINVCGVRKRSYSAGNASQLEQLSRARRSGGELYIDYEEEEMETVEQSTQRIKEFRQLTADMQALEQKIQDSSCEASSELRENGECRSVAVGAEENMNDIVVYHRGSRSCKDAAVGTLVEMRNCGVSVTEAMLGVMTEADKEIELQQQTIESLKEKIYRLEVQLRETTHDREMTKLKQELQAAGSRKKVDKATMAQPLVFSKVVEAVVQTRDQMVGSHMDLVDTCVGTSVETNSVGISCQPECKNKVVGPELPMNWWIVKERVEMHDRCAGRSVEMCDKSVSVEVSVCETGSNTEESVNDLTLLKTNLNLKEVRSIGCGDCSVDVTVCSPKECASRGVNTEAVSQVEAAVMAVPRTADQDTSTDLEQVHQFTNTETATLIESCTNTCLSTLDKQTSTQTVETRTVAVGEGRVKDINSSTKTRSIGVGTLLSGHSGFDRPSAVKTKESGVGQININDNYLVGLKMRTIACGPPQLTVGLTASRRSVGVGDDPVGESLENPQPQAPLGMMTGLDHYIERIQKLLAEQQTLLAENYSELAEAFGEPHSQMGSLNSQLISTLSSINSVMKSASTEELRNPDFQKTSLGKITGNYLGYTCKCGGLQSGSPLSSQTSQPEQEVGTSEGKPISSLDAFPTQEGTLSPVNLTDDQIAAGLYACTNNESTLKSIMKKKDGNKDSNGAKKNLQFVGINGGYETTSSDDSSSDESSSSESDDECDVIEYPLEEEEEEEDEDTRGMAEGHHAVNIEGLKSARVEDEMQVQECEPEKVEIRERYELSEKMLSACNLLKNTINDPKALTSKDMRFCLNTLQHEWFRVSSQKSAIPAMVGDYIAAFEAISPDVLRYVINLADGNGNTALHYSVSHSNFEIVKLLLDADVCNVDHQNKAGYTPIMLAALAAVEAEKDMRIVEELFGCGDVNAKASQAGQTALMLAVSHGRIDMVKGLLACGADVNIQDDEGSTALMCASEHGHVEIVKLLLAQPGCNGHLEDNDGSTALSIALEAGHKDIAVLLYAHVNFAKAQSPGTPRLGRKTSPGPTHRGSFD"}},
  "data": [
    {"tested_on": "GFP-14-3-3β", "assay": "GFP-14-3-3β co-IP with LC-MS/MS, untreated GFP-14-3-3β versus GFP control (14-3-3 interactome)", "type": "binding, human", "details": "untreated vs GFP; LFQ intensities, replicates 1-3", "units": {"Difference (log2), untreated vs GFP": "log2"}, "values": [
      {"molecule": "B1", "Difference (log2), untreated vs GFP": 6.032},
      {"molecule": "B2", "Difference (log2), untreated vs GFP": -0.8949},
      {"molecule": "B3", "Difference (log2), untreated vs GFP": 1.703},
      {"molecule": "B4", "Difference (log2), untreated vs GFP": 0.6927},
      {"molecule": "B5", "Difference (log2), untreated vs GFP": 0.7735},
      {"molecule": "B6", "Difference (log2), untreated vs GFP": 3.839}
    ]},
    {"tested_on": "GFP-14-3-3β and its binding proteins", "assay": "GFP-14-3-3β co-IP with LC-MS/MS label-free quantification, untreated versus PP1c-treated", "parameters": "species or system human", "details": "PP1 vs untreated; LFQ intensities, replicates 1-3", "units": {"Difference (log2), PP1 vs untreated": "log2"}, "values": [
      {"molecule": "B1", "Difference (log2), PP1 vs untreated": -1.125},
      {"molecule": "B2", "Difference (log2), PP1 vs untreated": -1.158},
      {"molecule": "B3", "Difference (log2), PP1 vs untreated": -1.185},
      {"molecule": "B4", "Difference (log2), PP1 vs untreated": -1.189},
      {"molecule": "B5", "Difference (log2), PP1 vs untreated": -1.243},
      {"molecule": "B6", "Difference (log2), PP1 vs untreated": -1.352}
    ]}
  ]
}
